What was measured:
[1] = target: T1, TYK2 JH1 domain (UniProt P29597 897-1176); assay: SPR
T1 chain: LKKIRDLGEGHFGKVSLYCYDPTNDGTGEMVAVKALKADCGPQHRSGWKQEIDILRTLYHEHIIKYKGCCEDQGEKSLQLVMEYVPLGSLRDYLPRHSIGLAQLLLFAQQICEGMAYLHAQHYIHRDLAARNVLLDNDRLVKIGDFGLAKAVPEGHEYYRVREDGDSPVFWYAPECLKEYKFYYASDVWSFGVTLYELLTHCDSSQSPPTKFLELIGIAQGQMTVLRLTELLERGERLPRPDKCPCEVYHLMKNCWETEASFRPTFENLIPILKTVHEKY

[2] = target: JAK3 JH1 domain (UniProt P52333 822-1111); assay: SPR
JAK3 JH1 domain, sequence (P52333 822-1111): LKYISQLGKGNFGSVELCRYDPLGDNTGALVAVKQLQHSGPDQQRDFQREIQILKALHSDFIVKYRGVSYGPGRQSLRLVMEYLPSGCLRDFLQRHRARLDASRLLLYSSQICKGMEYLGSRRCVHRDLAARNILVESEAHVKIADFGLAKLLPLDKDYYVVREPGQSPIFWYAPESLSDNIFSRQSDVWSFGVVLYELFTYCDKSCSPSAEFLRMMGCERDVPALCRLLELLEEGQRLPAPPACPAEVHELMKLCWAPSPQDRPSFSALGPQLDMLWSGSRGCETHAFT

B1: SOCS5 175–244 fragment (domain or fragment)
chain: RSLRQRLQDTVGLCFPMRTYSKQSKPLFSNKRKIHLSELMLEKCPFPAGSDLAQKWHLIKQHTAPVSPHS
[1]
  Kd: 1200 nM
[2]
  Kd: 2100 nM

Source: article PMC3749136 (2013)
